Data published in patent publication US20210054055A1.

Target: Dengue virus serotype 4 (DENV4) virions, envelope protein E (Dengue virus 4)

B1: Anti-ZIKV clone DT168(A)-D1_A-9E (A9E) (antibody, V domains shown)
VH: EVQLLESGGGLVQAGGSLRLSCAASGFTFDTYAMSWVRQPPGKGLEWVSAISTGGGSKYYADSVKGRLTISRDNSQNTLYLQMSSLRADDTAVYYCARSDFWRSGRYYYYMDVWGRGTTVTVSS
VL: QSALTQPASVSASPGQSITISCTGTHFDIVDYDYLSWYQQHPGNAPKLLIYGVSNRPSGVSSRFSGSKSGNTASLTISGLQAEDEGDYYCSSYSISSTLLVFGGGTKLSV
In the case of B1, the FRNT50 (focus reduction neutralization on Vero cells) is reported as over 10000 ng/mL.

B2: Anti-ZIKV clone DT168(A)-D1_G-9E (G9E) (antibody, V domains shown)
VH: EVQLVESGGGVVQPGRSLRLSCVASGFAFSNYHMHWVRQAPGKGLEWVAIIWDDGSDQYYADSVKGRFTISRDNSKNTLFLQMNRLRAEDTALYYCVGGSSAYNGDNGWREAASLDDWGQGTLVTVSS
VL: QSALTQPASVSGSPGQSITIFCSGSSNDVGGYNYVSWYQQYPGKVPKLLIYDVNSRPSGVSNRFSGSKSGNTASLTISGLQAEDEADYYCSSYTSRRTWVFGGGTIVTVL
Work on B2 yielded an FRNT50 (focus reduction neutralization on Vero cells) of over 10000 ng/mL.
